B1: rRNase A-1: recombinant carboxy-terminal FLAG-tagged Gallus gallus leukocyte RNase A-1, SEQ ID NO: 2, GenBank DQ395275 (protein, listed as Gallus gallus)
chain: VPTYQDFLRTHVDFPKTSFPNIAAYCNVMMVRRGINVHGRCKSLNTFVHTDPRNLNTLCINQPNRALRTTQQQLPVTDCKLIRSHPTCSYTGNQFNHRVRVGCWGGLPVHLDGTFP
modifications: C-terminal FLAG tag
B2: rRNase A-2: recombinant carboxy-terminal FLAG-tagged Gallus gallus leukocyte RNase A-2, SEQ ID NO: 4, GenBank DQ395276 (protein, listed as Gallus gallus)
chain: VPTYQDFLYKHMDFPKTSFPSNAAYCNVMMVRRGMTAHGRCKSFNTFVHTDPRNLNTLCINQPDQALRTTRRHFRITDCKLIRSHPTCRYSGNQFNRRVRVGCRGGLPVHLDGTSP
modifications: C-terminal FLAG tag

Key:
E. coli DH5α = assay: bactericidal colony-forming assay, E. coli; type: cell-based, Escherichia coli
Protocol: (§1) FIGS. 5 A & B are graphs showing the bactericidal activity of rRNases A-1 and A-2. In panel (A) E. coli DH5α and in panel (B) S. aureus 502A were re-suspended in 100 mM sodium phosphate buffer, pH 7.4, and incubated with the indicated concentrations of chicken leukocyte RNase A-1 (open squares) and A-2 (closed circles) for 4 h at 37° C., plated on RNase-free LB agar, and grown overnight for colony counts.
RNase A polypeptides and fragments according to the invention that have bactericidal activity are particularly preferred for use in the treatment methods of the invention. The bactericidal and bacteriostatic activity of a particular RNase A polypeptides or fragments can be assessed by known protocols, such as that described in the methods section and the following described protocol, herein referred to as “a standard bacterial colony formation assay.” Bactericidal assays are well-described in the art, and are performed as described previously, and as exemplified in Examples 3-6. Briefly, an aliquot from a single bacterial colony overnight culture grown in Luria-Beitani (LB) broth is diluted 1:100 in sodium phosphate, pH 7.4, collected by centrifugation, and resuspended in sodium phosphate, pH 7.4. An aliquot of bacteria in buffer are incubated for 4 hr at 37° C. with recombinant protein or peptide at concentrations indicated, or diluent control and were then diluted 10, 100, or 1000-fold prior to plating on LB agar for overnight growth for colony counts.
Next, the bactericidal activity of chicken leukocyte RNases were examined using a colony-forming assay as previously described for eosinophil cationic protein [28]. […] E. coli was more susceptible to the bactericidal activity of leukocyte rRNase A-2 than was S. aureus, as 5 μM rRNase A-2 reduced the colony count of E. coli 10^7-fold, while reducing the colony count of S. aureus, only 100-fold. Recombinant RNase A-1 had no effect on colony number of E. coli or S. aureus concentrations up to and including […].
Bactericidal assays were performed as described previously with modifications. Briefly, 100 microliters from a single bacterial colony overnight culture grown in Luria-Bertani (LB) broth was diluted 1:100 in 100 mM sodium phosphate, pH 7.4, collected by centrifugation, and resuspended in 1 ml sodium phosphate, pH 7.4. Ten microliters of bacteria in buffer are incubated for 4 hr at 37° C. with 10 microliters recombinant protein or peptide at concentrations indicated, or diluent control and were then diluted 10, 100, or 1000-fold prior to plating on LB agar for overnight growth for colony counts. All points were determined in triplicate.

S. aureus 502A = assay: bactericidal colony-forming assay, S. aureus; type: cell-based, Staphylococcus aureus
Protocol: as §1
RNase A polypeptides and fragments according to the invention that have bactericidal activity are particularly preferred for use in the treatment methods of the invention. The bactericidal and bacteriostatic activity of a particular RNase A polypeptides or fragments can be assessed by known protocols, such as that described in the methods section and the following described protocol, herein referred to as “a standard bacterial colony formation assay.” Bactericidal assays are well-described in the art, and are performed as described previously, and as exemplified in Examples 3-6. Briefly, an aliquot from a single bacterial colony overnight culture grown in Luria-Beitani (LB) broth is diluted 1:100 in sodium phosphate, pH 7.4, collected by centrifugation, and resuspended in sodium phosphate, pH 7.4. […]
Bactericidal assays were performed as described previously with modifications. […] All points were determined in triplicate.

isoelectric point = type: physicochemical

Molecule | bactericidal activity against E. coli (in words), recombinant proteins (E. coli DH5α; 5 μM, 4 hrs) | effect on colony number of E. coli (E. coli DH5α; concentrations up to and including 5 μl %/1) | effect on colony number of S. aureus (S. aureus 502A; concentrations up to and including 5) | isoelectric point (pI) (isoelectric point) | reduction of colony count of E. coli (E. coli DH5α; 5 μM, 4 h at 37° C.) | colony count of E. coli after incubation (E. coli DH5α; 5 μM, 4 hrs) | reduction of colony count of S. aureus (S. aureus 502A; 5 μM, 4 h at 37° C.)
B1 | no impact on colony count | no effect | no effect | 10.2 |  |  | 
B2 |  |  |  | 11.0 | 10^7 fold | < 100 CFU/ml | 100 fold

Source: patent US8748572B2, “RNase a peptides, fragments and uses thereof” (priority 2006, dated 2014)
